Results reported in the supplement of paper PMC10126150.
± gives the standard deviation of the averaged measurements.

Tested on: ATP
Assay: switch fluorescence ratio, 500 uM ATP over buffer (Cy3 cluster intensity, sum of 5 cycles each) (fold (ratio)); higher = stronger signal-on switching upon ATP binding; sequences stand for … in TCGTCGGCAGCGTCAGATGTGTATAAGAGACAGTTTTTTTTTTTTTTTTTTTTTTTTT…TC
Conditions: aptamer strand: ATP DNA aptamer (quencher-CACCTGGGGGAGTATTGCGGAGGAAGG + anchor), 100 nM annealed; ATP concentration: 500 uM
Procedure, shortened: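 Cy3-labelled switching-strand clusters on a modified Illumina MiSeq flow-cell were annealed to 100 nM quencher-labelled ATP aptamer, imaged in selection buffer, then imaged after 15 min with 500 uM ATP at 22 °C. Five buffer/ATP cycles ran, with NaOH stripping and re-annealing between them. The fluorescence ratio is summed target-cycle over summed buffer-cycle Cy3 intensity per cluster, averaged per switch-domain sequence. Clusters outside 100-1000 RFU were excluded.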
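Further: ATP exposure 15 min at 22 °C before imaging.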

| Sequence | switch fluorescence ratio |
| --- | --- |
| TTGAAGGCGG | 1.02 ± 0.024 |
| GTGGGGGAGA | 0.9868 ± 0.0059 |
| AGGCAGGCCA | 1.17 ± 0.056 |
| GCACGGACAT | 1.4 ± 0.031 |
| GTTAACTCTG | 0.9801 ± 0.0084 |
| TATATGCTGT | 0.98 ± 0.011 |
| TTGGGTATGA | 1.01 ± 0.037 |
| CAAGTGTATC | 1.02 ± 0.045 |
| CATATCCCCT | 1.03 ± 0.045 |
| TTAAAAAAAA | 1.16 ± 0.35 |
| AGTTTGCGGC | 0.94 ± 0.039 |
| CCTCATAGTC | 1.413 ± 0.0066 |
| TGGTTATGTA | 1 ± 0.014 |
| ACAGCGGCTA | 1.02 ± 0.017 |
| GCTTCGGGGC | 1.01 ± 0.016 |
| TGTTGAGGCG | 0.981 ± 0.015 |
| AAACAATGTG | 0.972 ± 0.013 |
| TCTTCCGGTG | 1.68 ± 0.045 |
| TGAATGTGGT | 0.97 ± 0.014 |
| CAGTAAAAGT | 0.983 ± 0.031 |
| CCAAAAAAAG | 1.03 ± 0.032 |
| TATAACCAGG | 1.33 ± 0.086 |
| AGATGTAGGC | 1.03 ± 0.038 |

| Sequence | switch fluorescence ratio |
| --- | --- |
| TAAGGGTTGC | 1.03 ± 0.016 |
| CCGGCCCACA | 1.266 ± 0.0065 |
| ATGGCTGTCA | 1.012 ± 0.0012 |
| CGTGGGATAT | 1.0053 ± 0.00092 |
| TTTTTTCGGC | 0.988 ± 0.022 |
| CGGTTAAAGG | 0.974 ± 0.03 |
| AGATGTGGGT | 0.972 ± 0.02 |
| CGCTTACTTT | 1.24 ± 0.021 |
| GGGGGCGCGG | 0.996 ± 0.015 |
| GGGAGCAGGG | 0.909 ± 0.058 |
| AGGCGTAAGG | 1.03 ± 0.015 |
| TTTGAGTCGG | 0.957 ± 0.0034 |
| ACAGGCTGCG | 0.995 ± 0.024 |
| AGTGAGAT | 0.9943 ± 0.0097 |
| TTAATGTGGG | 0.995 ± 0.014 |
| ATAAGTGGTT | 0.995 ± 0.026 |
| AAAATTGCAT | 0.993 ± 0.021 |
| TCGAATGGCT | 1 ± 0.044 |
| TCGAGGAATC | 1.075 ± 0.0094 |
| AAGCTGGGAC | 1.08 ± 0.015 |
| AGGGGTGGGT | 1.04 ± 0.054 |
| TGTAGACTGA | 1.01 ± 0.011 |
| GGTATTGTGT | 1.02 ± 0.028 |

| Sequence | switch fluorescence ratio |
| --- | --- |
| TCCTTTAAGG | 1.025 ± 0.003 |
| GTTTCGGTGG | 0.986 ± 0.085 |
| AGGCCTGAGC | 1 ± 0.025 |
| TGGGTTAGTA | 0.984 ± 0.015 |
| CTTAGTGGGG | 0.962 ± 0.048 |
| GTTTACCGGA | 1.05 ± 0.08 |
| TTTGAATTCG | 1.009 ± 0.0022 |
| ATTCCTGGGG | 1.05 ± 0.012 |
| TCGCGGCAAT | 3.06 ± 2.3 |
| CGGGCATTAG | 1.209 ± 0.0071 |
| GGCCTGGGTA | 1 ± 0.031 |
| AGCACATGTA | 0.998 ± 0.021 |
| AGTTTCGGCG | 1 ± 0.02 |
| CGTGGTTGAG | 0.976 ± 0.018 |
| GGAGCGGGGG | 1.02 ± 0.014 |
| ATATGGGGAC | 1.01 ± 0.024 |
| TAATGTTCTC | 1.02 ± 0.011 |
| GACTTAGGGA | 0.9949 ± 0.0013 |
| AGGACTTGAA | 1.02 ± 0.035 |
| AAGGGGGTTA | 0.991 ± 0.025 |
| TGTTAATGTG | 1.004 ± 0.0038 |
| AAGAATGCGG | 0.988 ± 0.027 |
| CAGCTCGGTC | 0.9687 ± 0.0082 |

| Sequence | switch fluorescence ratio |
| --- | --- |
| CAATGGTTCA | 1.01 ± 0.013 |
| CCAGGAGTCA | 1.032 ± 0.0017 |
| ATGGTAGTAT | 0.986 ± 0.016 |
| CCTTGCCGGG | 1.05 ± 0.019 |
| AGGGTAATCG | 1.02 ± 0.011 |
| TCGCTGTTGT | 1.01 ± 0.0019 |
| ATTCAACGGG | 1.04 ± 0.013 |
| AGAGTTGGGA | 1.01 ± 0.018 |
| TAGTGGGGCC | 1.01 ± 0.019 |
| TATTGAGACC | 1.03 ± 0.036 |
| CGTCCGAAGG | 1.03 ± 0.041 |
| ACTTGGAGGG | 1.01 ± 0.011 |
| GGTGGTGTTT | 1 ± 0.026 |
| ACGCATTATT | 1.62 ± 0.051 |
| ATTGCGAATT | 1.02 ± 0.022 |
| TTCGTACGGG | 1.03 ± 0.021 |
| TGGTCCATGG | 1.008 ± 0.007 |
| GATCAGAGGG | 1.008 ± 0.01 |
| CGGTAGGCGA | 0.985 ± 0.027 |
| TGGTAATATA | 1.02 ± 0.024 |
| GGGTTTCGTT | 0.99 ± 0.05 |
| CTTAGTACGG | 1.01 ± 0.054 |
| GACGCATGGT | 2.37 ± 0.15 |

| Sequence | switch fluorescence ratio |
| --- | --- |
| TTAGTGAAGT | 1 ± 0.011 |
| CGTAACTGGT | 0.978 ± 0.018 |
| AGGGTAGGGC | 1.02 ± 0.025 |
| GTGGTATCAC | 1 ± 0.011 |
| GGGGGTTCAG | 0.978 ± 0.04 |
| GCGGGGTTGG | 1.01 ± 0.035 |
| TGTAGTTTGG | 1.02 ± 0.032 |
| GGGGGCTATG | 0.99 ± 0.015 |
| TACGTTGGGG | 1 ± 0.028 |
| TGTGCTTGGG | 1.04 ± 0.027 |
| TTTGATAGT | 1 ± 0.021 |
| TGGTGTCTAT | 1.007 ± 0.0087 |
| CTTATGATGG | 0.987 ± 0.01 |
| CATAGAAAAT | 0.965 ± 0.0069 |
| CGTGCCCGGT | 1.02 ± 0.022 |
| AGGGCAGAGA | 1.02 ± 0.046 |
| CATGGTGTTA | 1.01 ± 0.025 |
| GCATGTGGCT | 0.994 ± 0.024 |
| CATGGAATCG | 1.02 ± 0.035 |
| AGCAATAGGT | 1.94 ± 0.46 |
| CTATAGGAGA | 1.01 ± 0.044 |
| AGTTGTAAGG | 0.962 ± 0.014 |
| ATCGGGTCCA | 0.979 ± 0.028 |

| Sequence | switch fluorescence ratio |
| --- | --- |
| GGTGTGTCTC | 1.03 ± 0.065 |
| ATAGAGATGT | 0.978 ± 0.018 |
| ACATTGGGCT | 1.01 ± 0.072 |
| AAAAAGGGGT | 1.15 ± 0.34 |
| TCAGATGGTG | 1.02 ± 0.014 |
| TTACGTGTCG | 1.01 ± 0.068 |
| AACTAATTCA | 0.99298 ± 0.00078 |
| TAGGGAGCCT | 0.964 ± 0.016 |
| GGGGTAAGGA | 1 ± 0.021 |
| AAAGGCTTGG | 0.992 ± 0.015 |
| TCTTGGTTTC | 0.997 ± 0.013 |
| GGTTTTGTGG | 1.01 ± 0.03 |
| TGGCCGTGGC | 1.03 ± 0.05 |
| CAAGTCAAGA | 1.0299 ± 0.00028 |
| CGTAGCGGGG | 1.11 ± 0.022 |
| GAATTAATGG | 1.02 ± 0.07 |
| TTTATTTGCG | 0.9875 ± 0.0067 |
| TATTATGGGA | 0.991 ± 0.035 |
| AGTGTCTTTG | 0.954 ± 0.011 |
| TGGCGCATAA | 1.25 ± 0.059 |
| GGCGCCGGGC | 1.02 ± 0.022 |
| GGGGGCCACT | 0.975 ± 0.041 |
| AGGGAATGTG | 0.987 ± 0.034 |

| Sequence | switch fluorescence ratio |
| --- | --- |
| CGGGTGATTA | 1 ± 0.035 |
| ACAAGGGCAT | 1.03 ± 0.025 |
| CGGGATGGTT | 0.97 ± 0.11 |
| TTCAGTTTCG | 1.01 ± 0.027 |
| TGGGTTAGGT | 0.977 ± 0.022 |
| TGAAACCACT | 1.1 ± 0.013 |
| TAGCTGAGTT | 0.984 ± 0.014 |
| GTTTGTATTT | 1 ± 0.017 |
| TTGACAGTAA | 1.08 ± 0.014 |
| ATGCATGGAC | 1.11 ± 0.12 |
| AAGTTCGCCA | 0.994 ± 0.01 |
| GGGAGGGAGT | 1.01 ± 0.024 |
| TTATTTATTC | 1.03 ± 0.037 |
| CCAGGGACGA | 1.02 ± 0.024 |
| CATTGAGTTC | 0.978 ± 0.014 |
| ACTCCTCTTT | 1.093 ± 0.0093 |
| TGTTTTATCT | 0.9857 ± 0.0073 |
| CGGGGTCCTG | 1.03 ± 0.054 |
| AGGCGCCTGT | 1.02 ± 0.017 |
